Measurements: patent US20220332804A1 (CSL INNOVATION, published 2022)

Legend:
Experiment in all cases: SPR, antibody captured, C2 as analyte;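 note: biacore SPR at 37 °C, anti-C2 mAbs captured via goat anti-human IgG on CM5 chips, double-referenced sensorgrams fit to a 1:1 kinetic or steady-state model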
human C2 S278A = target: T1, human C2 S278A (human, UniProt P06681 21-752)
T1 sequence: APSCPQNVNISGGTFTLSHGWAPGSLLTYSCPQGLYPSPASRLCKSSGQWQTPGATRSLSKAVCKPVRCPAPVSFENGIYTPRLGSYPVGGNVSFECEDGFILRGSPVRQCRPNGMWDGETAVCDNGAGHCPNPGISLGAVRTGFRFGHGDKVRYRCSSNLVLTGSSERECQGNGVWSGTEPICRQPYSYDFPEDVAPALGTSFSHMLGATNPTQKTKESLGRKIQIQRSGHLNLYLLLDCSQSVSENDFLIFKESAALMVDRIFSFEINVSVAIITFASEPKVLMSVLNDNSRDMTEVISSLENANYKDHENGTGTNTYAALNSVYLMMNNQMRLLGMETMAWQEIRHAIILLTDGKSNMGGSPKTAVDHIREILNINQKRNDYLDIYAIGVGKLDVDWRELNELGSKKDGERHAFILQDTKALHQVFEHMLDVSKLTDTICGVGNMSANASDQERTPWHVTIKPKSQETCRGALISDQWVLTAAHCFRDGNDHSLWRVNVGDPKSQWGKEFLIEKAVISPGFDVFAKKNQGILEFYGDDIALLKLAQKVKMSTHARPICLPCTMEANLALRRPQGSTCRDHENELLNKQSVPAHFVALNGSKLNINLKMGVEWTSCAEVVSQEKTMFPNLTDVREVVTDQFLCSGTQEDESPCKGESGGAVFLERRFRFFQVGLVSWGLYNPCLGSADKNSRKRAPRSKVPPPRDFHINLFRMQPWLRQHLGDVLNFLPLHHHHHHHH

human C2 V465A = target: T2, human C2 V465A (human, UniProt P06681 21-752)
T2 sequence: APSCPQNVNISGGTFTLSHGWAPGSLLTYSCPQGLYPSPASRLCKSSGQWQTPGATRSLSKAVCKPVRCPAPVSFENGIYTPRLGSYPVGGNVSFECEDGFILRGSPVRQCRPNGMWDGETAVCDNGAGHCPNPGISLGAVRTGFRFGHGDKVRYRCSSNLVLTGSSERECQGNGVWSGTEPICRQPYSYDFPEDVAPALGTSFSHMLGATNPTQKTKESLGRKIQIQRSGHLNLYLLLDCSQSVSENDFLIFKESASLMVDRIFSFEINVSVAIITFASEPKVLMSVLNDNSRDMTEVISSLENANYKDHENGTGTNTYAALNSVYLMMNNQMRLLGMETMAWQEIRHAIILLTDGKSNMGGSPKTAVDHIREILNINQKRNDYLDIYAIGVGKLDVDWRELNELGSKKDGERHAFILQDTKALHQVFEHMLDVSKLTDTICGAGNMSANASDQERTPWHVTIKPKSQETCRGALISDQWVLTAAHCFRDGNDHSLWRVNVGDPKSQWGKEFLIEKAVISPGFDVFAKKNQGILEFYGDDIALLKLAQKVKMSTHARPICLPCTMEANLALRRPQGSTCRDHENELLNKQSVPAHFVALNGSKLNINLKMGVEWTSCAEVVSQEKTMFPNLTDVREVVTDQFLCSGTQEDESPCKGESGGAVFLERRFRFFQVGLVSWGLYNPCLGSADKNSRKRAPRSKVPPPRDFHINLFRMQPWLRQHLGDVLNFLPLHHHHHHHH

human C2 E532A = target: T3, human C2 E532A (human, UniProt P06681 21-752)
T3 sequence: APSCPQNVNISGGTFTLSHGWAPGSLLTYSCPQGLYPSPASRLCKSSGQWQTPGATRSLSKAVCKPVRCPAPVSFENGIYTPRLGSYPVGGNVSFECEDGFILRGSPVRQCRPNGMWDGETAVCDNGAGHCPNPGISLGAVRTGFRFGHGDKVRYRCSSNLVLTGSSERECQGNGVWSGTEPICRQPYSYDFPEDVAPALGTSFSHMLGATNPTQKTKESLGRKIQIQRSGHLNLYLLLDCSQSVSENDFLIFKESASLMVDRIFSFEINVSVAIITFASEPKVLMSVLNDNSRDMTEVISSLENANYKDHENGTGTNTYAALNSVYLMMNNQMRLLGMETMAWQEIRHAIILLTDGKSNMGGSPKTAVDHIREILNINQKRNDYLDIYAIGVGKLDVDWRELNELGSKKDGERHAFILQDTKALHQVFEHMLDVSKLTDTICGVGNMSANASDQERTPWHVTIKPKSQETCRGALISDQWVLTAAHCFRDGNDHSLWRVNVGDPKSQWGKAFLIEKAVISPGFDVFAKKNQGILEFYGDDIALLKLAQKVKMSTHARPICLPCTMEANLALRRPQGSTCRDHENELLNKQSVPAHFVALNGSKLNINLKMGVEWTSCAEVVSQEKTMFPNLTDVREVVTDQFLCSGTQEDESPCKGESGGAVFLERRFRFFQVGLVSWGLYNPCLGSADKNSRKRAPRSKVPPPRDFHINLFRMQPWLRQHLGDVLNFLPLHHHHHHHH

human C2 D454A = target: T4, human C2 D454A (human, UniProt P06681 21-752)
T4 sequence: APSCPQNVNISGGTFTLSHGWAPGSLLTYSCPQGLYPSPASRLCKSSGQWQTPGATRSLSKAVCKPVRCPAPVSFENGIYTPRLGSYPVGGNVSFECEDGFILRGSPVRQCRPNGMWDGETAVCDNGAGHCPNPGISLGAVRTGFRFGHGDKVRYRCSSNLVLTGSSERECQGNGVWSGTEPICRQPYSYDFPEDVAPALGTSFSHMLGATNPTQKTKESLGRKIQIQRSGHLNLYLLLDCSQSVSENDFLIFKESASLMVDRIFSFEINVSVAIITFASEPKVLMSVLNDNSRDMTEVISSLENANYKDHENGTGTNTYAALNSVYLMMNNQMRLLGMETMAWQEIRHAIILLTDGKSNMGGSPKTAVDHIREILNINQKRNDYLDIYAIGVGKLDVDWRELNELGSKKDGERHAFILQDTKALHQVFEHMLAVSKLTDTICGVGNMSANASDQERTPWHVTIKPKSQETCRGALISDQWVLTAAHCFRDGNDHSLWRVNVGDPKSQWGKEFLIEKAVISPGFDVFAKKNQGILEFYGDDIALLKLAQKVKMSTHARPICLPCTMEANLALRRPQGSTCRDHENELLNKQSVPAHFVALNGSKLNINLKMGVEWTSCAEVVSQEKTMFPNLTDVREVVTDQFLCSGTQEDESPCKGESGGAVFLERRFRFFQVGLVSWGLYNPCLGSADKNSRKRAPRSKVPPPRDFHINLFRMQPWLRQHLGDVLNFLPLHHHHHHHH

B1: RF16-226 (antibody, human IgG4 S228P, lambda)
heavy: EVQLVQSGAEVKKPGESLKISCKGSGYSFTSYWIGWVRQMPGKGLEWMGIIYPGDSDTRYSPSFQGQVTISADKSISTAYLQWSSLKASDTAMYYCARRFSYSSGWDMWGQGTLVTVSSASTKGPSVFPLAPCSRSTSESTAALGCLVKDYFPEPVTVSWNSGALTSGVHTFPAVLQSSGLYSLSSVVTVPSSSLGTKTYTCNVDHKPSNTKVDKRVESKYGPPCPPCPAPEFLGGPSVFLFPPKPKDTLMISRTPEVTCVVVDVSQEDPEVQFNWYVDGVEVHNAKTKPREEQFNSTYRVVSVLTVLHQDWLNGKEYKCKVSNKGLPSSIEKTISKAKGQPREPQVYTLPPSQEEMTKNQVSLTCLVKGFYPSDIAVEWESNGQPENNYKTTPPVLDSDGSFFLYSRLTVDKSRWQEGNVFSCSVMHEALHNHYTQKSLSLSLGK
light: SYELTQPPSVSVSPGQTARITCSGDALTSKYVAWYQQKSGLAPLLVIYEDTRRPSGIPAKFSGSSSGSVATLTISGAHGDDEADYYCYSTDASGHQRVFGGGTKLTVLSQPKAAPSVTLFPPSSEELQANKATLVCLISDFYPGAVTVAWKADGSPVKAGVETTKPSKQSNNKYAASSYLSLTPEQWKSHRSYSCQVTHEGSTVEKTVAPTECS
notes: pH-dependent anti-C2 antibody from a phage display library; also called WT
Kd (human C2 S278A): 9.4 nM
Kd (human C2 V465A): 17.1 nM
Kd (human C2 E532A): 17.2 nM
Kd (human C2 D454A): 247 nM
